{"source": "the supplement of paper PMC11908140", "parents": {"B1": {"name": "library; numbered along this chain (parent)", "chain": "MRKPRAAVGSGHRKQAASQEGRQKHAKNNSQAKPSACDGLARQPEEVVLQASVSSYHLFRDVAEVTAFRGSLLSWYDQEKRDLPWRRRAEDEMDLDRRAYAVWVSEVMLQQTQVATVINYYTGWMQKWPTLQDLASASLEEVNQLWAGLGYYSRGRRLQEGARKVVEELGGHMPRTAETLQQLLPGVGRYTAGAIASIAFGQATGVVDGNVARVLCRVRAIGADPSSTLVSQQLWGLAQQLVDPARPGDFNQAAMELGATVCTPQRPLCSQCPVESLCRARQRVEQEQLLASGSLSGSPDVEECAPNTGQCHLCLPPSEPWDQTLGVVNFPRKASRKPPREESSATCVLEQPGALGAQILLVQRPNSGLLAGLWEFPSVTWEPSEQLQRKALLQELQRWAGPLPATHLRHLGEVVHTFSHIKLTYQVYGLALEGQTPVTTVPPGARWLTQEEFHTAAVSTAMKKVFRVYQGQQPGTCMGSKRSQVSSPCSRKKPRMGQQVLDNFFRSHISTDAHSLNSAAQ"}}}
{"variants_of": "B1", "test": "8OG:A repair function score (normalized; synonymous = 0, nonsense = -1) (normalized log-likelihood score); higher = more repair activity (WT-like)", "details": "with 8OG:A DNA repair reporter (GFP) in HEK-293 MUTYH KO cells", "summary_of_the_method": "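After 72 h, viable mCherry+ cells were split into GFP+ (repair) and GFP− bins in three replicates per tile. These cells were MUTYH knockout HEK-293 cells holding lentiviral MUTYH cDNA NNN codon-scan libraries, kept in 10 pg/ml doxycycline and co-transfected with mCherry plus an 8OG:A GFP repair reporter. Sequencing of tile amplicons gave per-tile Rosace fitness scores, normalized into a repair function score anchored on synonymous and nonsense distributions. Synonymous medians were fixed at 0, nonsense at -1, and variants under 300 counts per million at the start were removed.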"}
{"variant": "T380C", "8OG:A repair function score": -0.0502}
{"variant": "G429I", "8OG:A repair function score": -0.0856}
{"variant": "M93A", "8OG:A repair function score": 0.00637}
{"variant": "L396R", "8OG:A repair function score": -0.992}
{"variant": "V348F", "8OG:A repair function score": -0.996}
{"variant": "V348L", "8OG:A repair function score": -0.351}
{"variant": "V348Q", "8OG:A repair function score": -1.64}
{"variant": "S294F", "8OG:A repair function score": -0.0489}
{"variant": "D133C", "8OG:A repair function score": -0.201}
{"variant": "R495W", "8OG:A repair function score": 0.0272}
{"variant": "Q386D", "8OG:A repair function score": -0.076}
{"variant": "V218Q", "8OG:A repair function score": -0.472}
{"variant": "V218Y", "8OG:A repair function score": -0.62}
{"variant": "V218M", "8OG:A repair function score": 0.0454}
{"variant": "V218W", "8OG:A repair function score": -0.74}
{"variant": "L349K", "8OG:A repair function score": -1.07}
{"variant": "M478A", "8OG:A repair function score": -0.0431}
{"variant": "M478R", "8OG:A repair function score": -0.0213}
{"variant": "T122L", "8OG:A repair function score": -0.0652}
{"variant": "F504V", "8OG:A repair function score": -0.00446}
{"variant": "G148R", "8OG:A repair function score": -0.782}
{"variant": "V415Q", "8OG:A repair function score": 0.189}
{"variant": "A400S", "8OG:A repair function score": -0.189}
{"variant": "L145E", "8OG:A repair function score": -0.0292}
{"variant": "H416Y", "8OG:A repair function score": -0.438}
{"variant": "K464I", "8OG:A repair function score": -0.441}
{"variant": "Q310V", "8OG:A repair function score": -0.0252}
{"variant": "P84C", "8OG:A repair function score": -0.445}
{"variant": "P84D", "8OG:A repair function score": -0.332}
{"variant": "G171N", "8OG:A repair function score": -0.204}
{"variant": "T449V", "8OG:A repair function score": -0.286}
{"variant": "Q78L", "8OG:A repair function score": -0.0196}
{"variant": "Q78C", "8OG:A repair function score": -0.996}
{"variant": "V242S", "8OG:A repair function score": -0.772}
{"variant": "P185Y", "8OG:A repair function score": -0.363}
{"variant": "W85R", "8OG:A repair function score": -1.51}
{"variant": "H514N", "8OG:A repair function score": 0.00779}
{"variant": "M496T", "8OG:A repair function score": -0.0187}
{"variant": "M496Y", "8OG:A repair function score": 0.00737}
{"variant": "Q271I", "8OG:A repair function score": -0.0397}
{"variant": "Q271T", "8OG:A repair function score": -0.00163}
{"variant": "A99P", "8OG:A repair function score": -0.584}
{"variant": "G444C", "8OG:A repair function score": -0.242}
{"variant": "R279A", "8OG:A repair function score": -0.278}
{"variant": "L109N", "8OG:A repair function score": -0.45}
{"variant": "N329M", "8OG:A repair function score": -0.264}
{"variant": "T130W", "8OG:A repair function score": -0.522}
{"variant": "T130S", "8OG:A repair function score": 0.107}
{"variant": "E302H", "8OG:A repair function score": -0.259}
{"variant": "W447M", "8OG:A repair function score": -0.801}
{"variant": "G201P", "8OG:A repair function score": -1.06}
{"variant": "G434M", "8OG:A repair function score": 0.0898}
{"variant": "G434D", "8OG:A repair function score": -0.275}
{"variant": "G434S", "8OG:A repair function score": -0.0544}
{"variant": "V107M", "8OG:A repair function score": 0.0622}
{"variant": "V107I", "8OG:A repair function score": 0.0887}
{"variant": "V107E", "8OG:A repair function score": -0.669}
{"variant": "L393C", "8OG:A repair function score": -0.00132}
{"variant": "E167L", "8OG:A repair function score": 0.00804}
{"variant": "L149V", "8OG:A repair function score": -0.906}
{"variant": "V427W", "8OG:A repair function score": -0.831}
{"variant": "C278T", "8OG:A repair function score": -1.15}
{"variant": "I118V", "8OG:A repair function score": 0.00363}
{"variant": "R189N", "8OG:A repair function score": -0.421}
{"variant": "V65P", "8OG:A repair function score": -0.196}
{"variant": "R97P", "8OG:A repair function score": -1.03}
{"variant": "T324V", "8OG:A repair function score": -0.0374}
{"variant": "V165R", "8OG:A repair function score": -1.07}
{"variant": "V165K", "8OG:A repair function score": -1.13}
{"variant": "V165D", "8OG:A repair function score": -0.91}
{"variant": "L58N", "8OG:A repair function score": 0.00327}
{"variant": "A253N", "8OG:A repair function score": -1.01}
{"variant": "A253P", "8OG:A repair function score": -1.02}
{"variant": "S483C", "8OG:A repair function score": 0.025}
{"variant": "Q363L", "8OG:A repair function score": -0.242}
{"variant": "H420P", "8OG:A repair function score": -0.877}
{"variant": "G161F", "8OG:A repair function score": -1.03}
{"variant": "A245H", "8OG:A repair function score": -0.134}
{"variant": "R219F", "8OG:A repair function score": -0.485}
{"variant": "W321M", "8OG:A repair function score": -0.218}
{"variant": "V230T", "8OG:A repair function score": -0.281}
{"variant": "V230Y", "8OG:A repair function score": -0.311}
{"variant": "V230A", "8OG:A repair function score": -0.0122}
